What was measured:
[1] = molecular target: T1, human CD47 on cells (SHP-77 tumor cells, human red blood cells, CCRF-CEM cells, human CD47 CHO-K1 stable cell … (human, UniProt Q08722 19-323)); assay: flow cytometry on human RBCs;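 also: antibody binding measured by flow cytometry as geometric mean fluorescence intensity over a range of antibody concentrations, with EC50 and maximum taken from a sigmoidal dose-response fit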
T1 construct: whole, on cells; also called RBC

[2] = molecular target: T2, Human CD47-C33G (human, UniProt Q08722 19-135); assay: SPR, IgG captured, CD47 in flow; exp 3
T2 construct: also called CD47 mutein with C33G mutation

[3] = molecular target: T3, wild type human CD47 (Acro Biosystems, cat. no. CD7-H5227) (human, UniProt Q08722 19-139); assay: SPR, IgG captured, CD47 in flow; exp 3
T3 construct: Bought protein used as SPR analyte; also called Human CD47 wt; wild-type CD47

[4] = molecular target: T4, cynomolgus CD47 on CHO-K1 stable cell line (cynomolgus, UniProt A0A5F8AK49 19-323 (rhesus entry)); assay: flow cytometry on cynomolgus CD47 CHO-K1 cells
T4 construct: whole, on cells; also called cynomolgus CD47/CHO-K1

[5] = molecular target: T1, human CD47 on cells (SHP-77 tumor …); assay: flow cytometry on human RBCs; poor fitting, not accurate;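 as to Fitted Maximal MFI: antibody binding measured by flow cytometry as geometric mean fluorescence intensity over a range of antibody concentrations, with EC50 and maximum taken from a sigmoidal dose-response fit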
[6] = molecular target: T1, human CD47 on cells (SHP-77 tumor …); assay: flow cytometry on SHP-77 cells
[7] = molecular target: T1, human CD47 on cells (SHP-77 tumor …); assay: flow cytometry on human CD47 CHO-K1 cells
[8] = molecular target: T2, Human CD47-C33G; assay: SPR, IgG captured, CD47 in flow; exp 1
[9] = molecular target: T3, wild type human CD47 (Acro Biosystems, …); assay: SPR, IgG captured, CD47 in flow; exp 1
[10] = molecular target: T2, Human CD47-C33G; assay: SPR, IgG captured, CD47 in flow; exp 2;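 also: rates derived from association and dissociation curves, KD estimated from them, C33G mutein used to avoid CD47 IgV homodimers for true monovalent affinity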
[11] = molecular target: T3, wild type human CD47 (Acro Biosystems, …); assay: SPR, IgG captured, CD47 in flow; exp 2;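 also: rates derived from association and dissociation curves, KD estimated from them, C33G mutein used to avoid CD47 IgV homodimers for true monovalent affinity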
[12] = molecular target: T2, Human CD47-C33G; assay: SPR, IgG captured, CD47 in flow; exp 3; remark: listed apart in the source
[13] = molecular target: T3, wild type human CD47 (Acro Biosystems, …); assay: SPR, IgG captured, CD47 in flow; exp 3; remark: listed apart in the source
[14] = molecular target: T2, Human CD47-C33G; assay: SPR, IgG captured, CD47 in flow; exp 4
[15] = molecular target: T3, wild type human CD47 (Acro Biosystems, …); assay: SPR, IgG captured, CD47 in flow; exp 4
[16] = molecular target: T2, Human CD47-C33G; assay: SPR, IgG captured, CD47 in flow; exp 1; remark: listed apart in the source
[17] = molecular target: T1, human CD47 on cells (SHP-77 tumor …); assay: flow cytometry on human RBCs; plateau not reached, not accurate;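 as to Fitted Maximal MFI: antibody binding measured by flow cytometry as geometric mean fluorescence intensity over a range of antibody concentrations, with EC50 and maximum taken from a sigmoidal dose-response fit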
[18] = molecular target: T2, Human CD47-C33G; assay: SPR, IgG captured, CD47 in flow; exp 4; remark: listed apart in the source
[19] = molecular target: T3, wild type human CD47 (Acro Biosystems, …); assay: SPR, IgG captured, CD47 in flow; exp 4; remark: listed apart in the source
[20] = molecular target: T2, Human CD47-C33G; assay: SPR, IgG captured, CD47 in flow; exp 1; remark: listed apart in the source
[21] = molecular target: T3, wild type human CD47 (Acro Biosystems, …); assay: SPR, IgG captured, CD47 in flow; exp 1; remark: listed apart in the source

B1: 108VH5.M16 / 108VL1.M5 (antibody, human IgG4 S228P, kappa, V domains shown)
VH: EVQLVQSGAEVKKPGASVKVSCKASGYTFTHHWMHWVRQAPGQGLEWMGMIDASDGETRYAQKFQGRVTMTRDTSTSTVYMELSSLRSEDTAVYYCARLGRYYFDYWGQGTLVTVSS
VL: EIVLTQSPATLSLSPGERATLSCRASQSVSSYLAWYQQKPGQAPRLLIYGASNRATGIPARFSGSGSGTDFTLTISSLEPEDFAVYYCGESYGHLYTFGGGTKVEIKR
notes: Full-length IgG4 (S228P), kappa; also called VH5.M16 VL1.M5
Q: With B1 as the binder, how does the “Fitted Maximal MFI” value [1] read?
A: The value was 45300 MFI.

Q: What about the Kd [2] of the same binder?
A: The Kd was 14 nM.

Q: And the koff [2]?
A: Its koff is 0.0041 s⁻¹.

Q: And the kon [2]?
A: The kon was 290000 M⁻¹ s⁻¹.

Q: And the Kd [3]?
A: The Kd was 2.6 nM.

Q: What about the koff [3] of the same binder?
A: The koff was 0.0019 s⁻¹.

Q: What about the kon [3] of the same binder?
A: Its kon is 720000 M⁻¹ s⁻¹.

Q: And the EC50 [4]?
A: Its EC50 is 1.8 nM.

Q: And the EC50 [5]?
A: The EC50 was 3.9 nM.

Q: And the EC50 [6]?
A: The EC50 was 6.9 nM.

Q: And the “Fitted Maximal MFI” value [6]?
A: The value was 44700 MFI.

Q: What about the EC50 [7] of the same binder?
A: The EC50 was 1.9 nM.

B2: 108VH10 / 108VL10.M1 (antibody, V domains shown)
VH: EVQLVESGGGLVQPGGSLRLSCAASGYSFTHHWIHWVRQAPGKGLEWVAMIDPSDSETRLSQKFKDRFTISADTSKNTAYLQMNSLRAEDTAVYYCSRLGRYYFDYWGQGTLVTVSS
VL: DIQMTQSPSSLSASVGDRVTITCRASENVGTYISWYQQKPGKAPKLLIYGASNRYTGVPSRFSGSRSGTDFTLTISSLQPEDFATYYCGESYGHLYTFGQGTKVEIK
notes: 4D5-framework series; also called VH10 VL10.M1; straight-graft antibody
Q: What does the source list for B2?
A: Kd [8]: 34 nM; koff [8]: 0.0034 s⁻¹; kon [8]: 99000 M⁻¹ s⁻¹; Kd [9]: 5.6 nM; koff [9]: 0.0013 s⁻¹; kon [9]: 230000 M⁻¹ s⁻¹; Kd [10]: 43 nM; koff [10]: 0.0038 s⁻¹; kon [10]: 87000 M⁻¹ s⁻¹; Kd [11]: 5.8 nM; koff [11]: 0.0016 s⁻¹; kon [11]: 280000 M⁻¹ s⁻¹; Kd [12]: 36 nM; koff [12]: 0.003 s⁻¹; kon [12]: 85000 M⁻¹ s⁻¹; Kd [13]: 6.1 nM; koff [13]: 0.0014 s⁻¹; kon [13]: 230000 M⁻¹ s⁻¹; Kd [14]: 28 nM; koff [14]: 0.003 s⁻¹; kon [14]: 110000 M⁻¹ s⁻¹; Kd [15]: 5.2 nM; koff [15]: 0.0013 s⁻¹; kon [15]: 240000 M⁻¹ s⁻¹; fold drop of mono-valent binding affinity (reference not given; Table 2, experiment 1) [16]: 34 fold

B3: 108VH4.M4-VL1.M1 (antibody, V domains shown)
VH: EVQLVQSGAEVKKPGSSVKVSCKASGYSFTHHWIHWVRQAPGQGLEWMGMIDASDSETRLSQKFKDRVTITADKSTSTAYMELSSLRSEDTAVYYCARLGRYYFDYWGQGTTVTVSS
VL: EIVLTQSPATLSLSPGERATLSCRASENVGTYISWYQQKPGQAPRLLIYGASNRYTGIPARFSGSGSGTDFTLTISSLEPEDFAVYYCGESYGHLYTFGGGTKVEIK
notes: also called original humanized 108C10A6 antibody
Q: Which Kd [8] does the source give for B3 here?
A: Its Kd is 2.1 nM.

Q: And the koff [8]?
A: The koff was 0.00087 s⁻¹.

Q: And the kon [8]?
A: Its kon is 410000 M⁻¹ s⁻¹.

Q: What about the Kd [9] of the same binder?
A: Its Kd is 0.39 nM.

Q: And the koff [9]?
A: Its koff is 0.00039 s⁻¹.

Q: What about the kon [9] of the same binder?
A: Its kon is 1e+06 M⁻¹ s⁻¹.

Q: What about the Kd [10] of the same binder?
A: The Kd was 2.6 nM.

Q: And the koff [10]?
A: The koff was 0.00097 s⁻¹.

Q: What about the kon [10] of the same binder?
A: The kon was 380000 M⁻¹ s⁻¹.

Q: What about the Kd [11] of the same binder?
A: Its Kd is 0.47 nM.

Q: And the koff [11]?
A: Its koff is 0.00046 s⁻¹.

Q: And the kon [11]?
A: The kon was 980000 M⁻¹ s⁻¹.

Q: What about the Kd [2] of the same binder?
A: Its Kd is 1.9 nM.

Q: And the koff [2]?
A: The koff was 0.00084 s⁻¹.

Q: What about the kon [2] of the same binder?
A: The kon was 430000 M⁻¹ s⁻¹.

Q: What about the Kd [3] of the same binder?
A: The Kd was 0.41 nM.

Q: And the koff [3]?
A: Its koff is 0.00041 s⁻¹.

Q: And the kon [3]?
A: The kon was 1e+06 M⁻¹ s⁻¹.

Q: And the EC50 [17]?
A: The EC50 was 7.6 nM.

Q: And the Kd [18]?
A: Its Kd is 1.5 nM.

Q: And the koff [18]?
A: The koff was 0.00086 s⁻¹.

Q: What about the kon [18] of the same binder?
A: The kon was 570000 M⁻¹ s⁻¹.

Q: What about the Kd [19] of the same binder?
A: The Kd was 0.38 nM.

Q: What about the koff [19] of the same binder?
A: Its koff is 0.00041 s⁻¹.

Q: And the kon [19]?
A: The kon was 1.1e+06 M⁻¹ s⁻¹.

Q: What about the EC50 [4] of the same binder?
A: The EC50 was 4.3 nM.

Q: And the Kd [20]?
A: Its Kd is 1.8 nM.

Q: And the koff [20]?
A: Its koff is 0.00087 s⁻¹.

Q: And the kon [20]?
A: The kon was 480000 M⁻¹ s⁻¹.

Q: And the Kd [21]?
A: The Kd was 0.4 nM.

Q: What about the koff [21] of the same binder?
A: The koff was 0.00042 s⁻¹.

Q: And the kon [21]?
A: Its kon is 1.1e+06 M⁻¹ s⁻¹.

Q: And the Kd [12]?
A: Its Kd is 1.9 nM.

Q: And the koff [12]?
A: The koff was 0.00084 s⁻¹.

Q: And the kon [12]?
A: Its kon is 430000 M⁻¹ s⁻¹.

Q: What about the Kd [13] of the same binder?
A: Its Kd is 0.41 nM.

Q: And the koff [13]?
A: The koff was 0.00041 s⁻¹.

Q: And the kon [13]?
A: The kon was 1e+06 M⁻¹ s⁻¹.

Q: What about the Kd [14] of the same binder?
A: Its Kd is 1.5 nM.

Q: And the koff [14]?
A: Its koff is 0.00086 s⁻¹.

Q: And the kon [14]?
A: The kon was 570000 M⁻¹ s⁻¹.

Q: And the Kd [15]?
A: The Kd was 0.38 nM.

Q: What about the koff [15] of the same binder?
A: The koff was 0.00041 s⁻¹.

Q: And the kon [15]?
A: The kon was 1.1e+06 M⁻¹ s⁻¹.

Q: What about the EC50 [6] of the same binder?
A: Its EC50 is 5.5 nM.

Q: What about the “Fitted Maximal MFI” value [6] of the same binder?
A: Its value is 46600 MFI.

Q: And the EC50 [7]?
A: Its EC50 is 2.6 nM.

From US20260132197A1 (NANJING LEGEND BIOTECH, published 2026)
